Reference: US20110318339A1 (FABRUS, published 2011)
Where a chain is given by its changes, count along the chain named. Numbers in names are those of the source.

How the values were obtained:
[1] = biological target: T1, recombinant mouse DLL4 (Cat# 1389-D4-050/CF, R&D Systems) (mouse, UniProt Q9JI71 28-525); experiment: ELISA, mDLL4 or hDLL4 coated
T1 construct: also called mDLL4

[2] = biological target: T2, Recombinant Human DLL4 (Cat# 1506-D4/CF, R&D Systems) (human, UniProt Q9NR61 27-529); experiment: SPR, DLL4 immobilised
T2 construct: Bought protein; also called rHuman DLL4; hDLL4
Experimental: In this example, the binding affinities of selected anti-DLL4 Fabs to recombinant human DLL4 (hDLL4, Cat# 1506-D4/CF, R&D Systems) were analyzed using Surface Plasmon Resonance (SPR) (Biosensor Tools, Salt Lake City, Utah). The Fabs analyzed include germline-derived antibodies and germline-modified DLL4 antibodies. Recombinant hDLL4 was immobilized on a SPR chip using amine coupling at three different surface densities. The Fabs were serially diluted 3-fold, with an initial concentration of 1 μM. Binding studies were run on a ProteOn system using a GLM sensor chip in 10 mM HEPES, pH 7.4, 150 mM NaCl, 0.01% Tween-20, and 0.1 mg/ml BSA at 25° C. The response data from each surface was globally fit to determine the binding constants.

[3] = biological target: T2, Recombinant Human DLL4 (Cat# …); experiment: ELISA, DLL4 coated
[4] = biological target: T2, Recombinant Human DLL4 (Cat# …); experiment: ELISA, hDLL4 coated, estimated from dose-dependent binding
[5] = biological target: T3, DLL4 Egf1 (amino acid: 1-251) construct (human, UniProt Q9NR61 26-251); experiment: Western blot, non-reducing
T3 construct: also called EGF1 construct; not shown: myc tag (and his tag) added by the PCR primers
Experimental: (§1) Media from transfected CHO cells was collected after 7 days. To enrich for the DLL4 protein, 1 ml aliquots of each sample were batch bound with 50 μl of Talon Resin for 30 minutes. To confirm protein production media samples were tested with mouse anti-c-myc mAb (Genescript; Catalog # A00704). Samples were washed and then boiled with loading dye in the presence or absence of DTT. A gel was run on each of the 2 samples for each condition: with DTT and without DTT. […] For detection goat anti-mouse HRP, goat anti-kappa HRP, and goat anti-lambda HRP were used, respectively.

[6] = biological target: T4, DLL4 DSL (amino acid: 1-217) construct (human, UniProt Q9NR61 26-217); experiment: Western blot, non-reducing
T4 construct: also called DSL construct; not shown: myc tag (and his tag) added by the PCR primers
Experimental: as §1

[7] = biological target: T2, Recombinant Human DLL4 (Cat# …); experiment: ECL competition, DLL4 coated; competitor 100 nM Ru-labeled Fab H:APF & L:wt
Experimental: Briefly, single spot 96-well standard plates (MSD) were coated overnight with 5 μl per well of 10 μg/ml DLL4 (R&D systems) in PBS with 0.03% Triton X-100. Some wells were left uncoated as blank. The next day, an 150 μl aliquot of 3% BSA in TBST was added to each well and allowed to incubate for 60 min at 20° C. to block the plate. […] After incubating the plate at 20° C. with shaking for 1 hour, the ECL signal was measured using a Sector Imager 2400.

[8] = biological target: T5, rHuman IGF-1 sR, (IGF-1 sR), CF (Cat# 391-GR) (human, UniProt P08069 31-932); experiment: Multispot ECL; Fab 14.375 nM
T5 construct: Bought from R&D Systems; also called insulin-like growth factor-1 soluble receptor
Experimental: (§2) An 150 μl aliquot of 1% Bovine Serum Albumin (BSA) in Tris-buffered Saline Tween (TBST) was added to each well and allowed to incubate for 30 min at 20° C. followed by washing and tap drying to completely remove any residual solution. Subsequently, a 12.5 μl aliquot of 1% BSA TBST was added to each well followed by the addition of a 12.5 μl aliquot of a purified Fab. The plate was sealed and incubated for 1 hour at 20° C. with shaking.
(§3) Detection antibodies were prepared by individually conjugating both goat anti-human Kappa light chain polyclonal antibody (K3502-1MG, Sigma-Aldrich) and goat anti-human Lambda light chain polyclonal antibody (L1645-1 mL, Sigma-Aldrich) with Ruthenium (II) tris-bipyridine-(4-methylsulfone)-N-hydroxysuccinimide (SULFO-TAG NHS-ester, Meso Scale Discovery) according to the manufacturer's instructions. TAG-detection antibody at 25 μl was added to each well and allowed to incubate for 1 hour at 20° C. with shaking. Finally, 15 μl of Read Buffer P with Surfactant (Cat # R92PC-1, Meso Scale Discovery) was added to each well. The electrochemiluminescence was measured using a Sector Imager 2400 (Meso Scale Discovery). Data was analyzed by comparing the ECL signals for an antigen to the blank of each well. A signal to blank ratio of 4 or more was considered a “Hit” Fab.
(§4) To confirm a “Hit” from the initial Multispot ECL screening, a Fab concentration dependent titration was carried out to determine the Fab-antigen binding affinity.

[9] = biological target: T6, rHuman Erythropoietin R/Fc Chimera, CF (Cat# 963-ER) (human, UniProt P19235 25-250); experiment: Multispot ECL; Fab 14.375 nM
T6 construct: Bought from R&D Systems; also called EPO R/Fc; Epo R/Fc chimera
T6 sequence (looked up): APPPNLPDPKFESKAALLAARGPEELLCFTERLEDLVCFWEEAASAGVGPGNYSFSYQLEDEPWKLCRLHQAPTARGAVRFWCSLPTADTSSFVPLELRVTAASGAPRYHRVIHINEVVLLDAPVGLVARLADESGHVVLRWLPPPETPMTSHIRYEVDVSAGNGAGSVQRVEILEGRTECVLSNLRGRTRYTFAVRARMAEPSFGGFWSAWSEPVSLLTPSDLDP
Experimental: as §2, §3, §4

[10] = biological target: T7, rHuman Notch-1/Fc Chimera, CF (Cat# 3647-TK) (human, UniProt P46531 19-526); experiment: Multispot ECL; Fab 14.375 nM
T7 construct: Bought from R&D Systems
Experimental: as §2, §3, §4

[11] = biological target: T8, Recombinant Human DLL4 (Cat# 1506-D4/CF) (human, UniProt Q9NR61 27-529); experiment: Multispot ECL; Fab 14.375 nM
T8 construct: Bought from R&D Systems; also called rHuman DLL4; hDLL4
Experimental: as §2, §3, §4

[12] = biological target: T5, rHuman IGF-1 sR, (IGF-1 sR), CF (Cat# …); experiment: Multispot ECL; Fab 920 nM
Experimental: as §2, §3, §4

[13] = biological target: T6, rHuman Erythropoietin R/Fc Chimera, CF …; experiment: Multispot ECL; Fab 920 nM
Experimental: as §2, §3, §4

[14] = biological target: T7, rHuman Notch-1/Fc Chimera, CF (Cat# …); experiment: Multispot ECL; Fab 920 nM
Experimental: as §2, §3, §4

[15] = biological target: T8, Recombinant Human DLL4 (Cat# 1506-D4/CF); experiment: Multispot ECL; Fab 920 nM
Experimental: as §2, §3, §4

[16] = biological target: T5, rHuman IGF-1 sR, (IGF-1 sR), CF (Cat# …); experiment: Multispot ECL; Fab 230 nM
Experimental: as §2, §3, §4

[17] = biological target: T6, rHuman Erythropoietin R/Fc Chimera, CF …; experiment: Multispot ECL; Fab 230 nM
Experimental: as §2, §3, §4

[18] = biological target: T7, rHuman Notch-1/Fc Chimera, CF (Cat# …); experiment: Multispot ECL; Fab 230 nM
Experimental: as §2, §3, §4

[19] = biological target: T8, Recombinant Human DLL4 (Cat# 1506-D4/CF); experiment: Multispot ECL; Fab 230 nM
Experimental: as §2, §3, §4

[20] = biological target: T5, rHuman IGF-1 sR, (IGF-1 sR), CF (Cat# …); experiment: Multispot ECL; Fab 57.5 nM
Experimental: as §2, §3, §4

[21] = biological target: T6, rHuman Erythropoietin R/Fc Chimera, CF …; experiment: Multispot ECL; Fab 57.5 nM
Experimental: as §2, §3, §4

[22] = biological target: T7, rHuman Notch-1/Fc Chimera, CF (Cat# …); experiment: Multispot ECL; Fab 57.5 nM
Experimental: as §2, §3, §4

[23] = biological target: T8, Recombinant Human DLL4 (Cat# 1506-D4/CF); experiment: Multispot ECL; Fab 57.5 nM
Experimental: as §2, §3, §4

[24] = biological target: T9, rHuman HGF R/c-MET/Fc Chimera, CF (Cat# 358-MT/CF) (human, UniProt P08581 25-932); experiment: Multispot ECL; Fab 280 nM
T9 construct: Bought from R&D Systems; also called HGF R/Fc; hepatocyte growth factor receptor (HGF R/c-Met)
Experimental: as §2
(§5) Detection antibodies were prepared by individually conjugating both goat anti-human Kappa light chain polyclonal antibody (K3502-1MG, Sigma-Aldrich) and goat anti-human Lambda light chain polyclonal antibody (L1645-1 mL, Sigma-Aldrich) with Ruthenium (II) tris-bipyridine-(4-methylsulfone)-N-hydroxysuccinimide (SULFO-TAG NHS-ester, Meso Scale Discovery) according to the manufacturer's instructions. TAG-detection antibody at 25 μl was added to each well and allowed to incubate for 1 hour at 20° C. with shaking. Finally, 15 μl of Read Buffer P with Surfactant (Cat # R92PC-1, Meso Scale Discovery) was added to each well. The electrochemiluminescence was measured using a Sector Imager 2400 (Meso Scale Discovery). Data was analyzed by comparing the ECL signals for an antigen to the blank of each well. A signal to blank ratio of 4 or more was considered a “Hit” Fab. […]

[25] = biological target: T8, Recombinant Human DLL4 (Cat# 1506-D4/CF); experiment: Multispot ECL; Fab 280 nM
Experimental: as §2, §5

[26] = biological target: T9, rHuman HGF R/c-MET/Fc Chimera, CF (Cat# …); experiment: Multispot ECL; Fab 17.5 nM
Experimental: as §2, §5

[27] = biological target: T8, Recombinant Human DLL4 (Cat# 1506-D4/CF); experiment: Multispot ECL; Fab 17.5 nM
Experimental: as §2, §5

[28] = biological target: T9, rHuman HGF R/c-MET/Fc Chimera, CF (Cat# …); experiment: Multispot ECL; Fab 4.375 nM
Experimental: as §2, §5

[29] = biological target: T8, Recombinant Human DLL4 (Cat# 1506-D4/CF); experiment: Multispot ECL; Fab 4.375 nM
Experimental: as §2, §5

[30] = biological target: T9, rHuman HGF R/c-MET/Fc Chimera, CF (Cat# …); experiment: Multispot ECL; Fab 70 nM
Experimental: as §2, §5

[31] = biological target: T8, Recombinant Human DLL4 (Cat# 1506-D4/CF); experiment: Multispot ECL; Fab 70 nM
Experimental: as §2, §5

T1 sequence (Q9JI71 28-525 limits assumed): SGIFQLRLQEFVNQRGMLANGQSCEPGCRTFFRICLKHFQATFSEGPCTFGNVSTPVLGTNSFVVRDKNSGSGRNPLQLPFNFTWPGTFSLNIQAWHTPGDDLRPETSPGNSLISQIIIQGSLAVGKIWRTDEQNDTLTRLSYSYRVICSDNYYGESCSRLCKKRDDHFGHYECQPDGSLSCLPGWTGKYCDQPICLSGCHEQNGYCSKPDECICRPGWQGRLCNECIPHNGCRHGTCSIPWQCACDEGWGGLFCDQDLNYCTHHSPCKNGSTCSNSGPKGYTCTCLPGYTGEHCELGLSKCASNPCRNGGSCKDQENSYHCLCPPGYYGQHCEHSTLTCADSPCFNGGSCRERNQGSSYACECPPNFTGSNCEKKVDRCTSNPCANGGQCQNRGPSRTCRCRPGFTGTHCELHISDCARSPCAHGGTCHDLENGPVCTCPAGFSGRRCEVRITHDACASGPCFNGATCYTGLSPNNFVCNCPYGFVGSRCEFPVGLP

B1: Fab VH1-46_IGHD6-6*01_IGHJ1*01 H:APFF VLTH & L6_IGKJ1*01 L:NDH LS (Fab, V domains shown)
VH: QVQLVQSGAEVKKPGASVKVSCKASGYTFTSYYMHWVRQAPGQGLEWMGIVLPTGHSTSYAQKFQGRVTMTRDTSTSTVYMELSSLRSEDTAVYYCAREEYAPFSAEYFQFWGQGTLVTVSS
VL: EIVLTQSPATLSLSPGERATLSCRASQNVDHYLAWYQQKPGQAPRLLIYDALNRSTGIPARFSGSGSGTDFTLTISSLEPEDFAVYYCQQRSNWPPWTFGQGTKVEIKR
notes: all other places give 370; also called Fab H:APFF VLTH & L:NDH LS; anti-DLL4 Fab H:APFF VLTH & L:NDH LS
fold decrease in affinity for mDLL4 against hDLL4 [1]: 10 fold
fold greater affinity for hDLL4 than for mouse DLL4 [2]: 5 fold
fold increased binding affinity against the antibody mutants with heavy chain H:APFF ALTH [3]: ~10 fold
Kd [4]: ~0.001 µM
binding result [5]: no binding (tested: 20 nM Fab)
binding result [6]: no binding (tested: 20 nM Fab)

B2: Fab VH1-46_IGHD6-6*01_IGHJ1*01 H:APFF G56H & L6_IGKJ1*01 (Fab, V domains shown)
VH: B1 VH with V51I, L52N, T54S
VL: not shown
notes: Fab, kappa light chain; also called H:APFF G56H & L:wt
Kd [7]: ~0.03 µM

B3: Fab VH1-46_IGHD3-10*01_IGHJ4*01 & L12_IGKJ1*01 (Fab, V domains shown)
VH: QVQLVQSGAEVKKPGASVKVSCKASGYTFTSYYMHWVRQAPGQGLEWMGIINPSGGSTSYAQKFQGRVTMTRDTSTSTVYMELSSLRSEDTAVYYCAREYYYGSGSYYNDYFDYWGQGTLVTVSS
VL: not shown
notes: Germline-derived Fab from E. coli: VH in Plasmid A (CH1, His6 and Flag tags), VL in Plasmid C (kappa CL)
ECL signal [8]: 1750
ECL signal [9]: 2720
ECL signal [10]: 4210
ECL signal [11]: 125000
ECL signal [12]: 10200
ECL signal [13]: 16400
ECL signal [14]: 20100
ECL signal [15]: 73600
ECL signal [16]: 4760
ECL signal [17]: 6950
ECL signal [18]: 9740
ECL signal [19]: 119000
ECL signal [20]: 2830
ECL signal [21]: 4040
ECL signal [22]: 5890
ECL signal [23]: 144000

B4: Fab VH1-46_IGHD2-15*01_IGHJ2*01 & L12_IGKJ1*01 (Fab, V domains shown)
VH: QVQLVQSGAEVKKPGASVKVSCKASGYTFTSYYMHWVRQAPGQGLEWMGIINPSGGSTSYAQKFQGRVTMTRDTSTSTVYMELSSLRSEDTAVYYCAREGYCSGGSCYSYWYFDLWGRGTLVTVSS
VL: not shown
notes: as for B3
ECL signal [24]: 3560
ECL signal [25]: 8110
ECL signal [26]: 565
ECL signal [27]: 1220
ECL signal [28]: 193
ECL signal [29]: 558
ECL signal [30]: 1290
ECL signal [31]: 2750
